Results published in article PMC10692919.

Molecular target: BMPs (in the Hep3B hepcidin bioassay)

B1: Full-length ERFE ΔCollagen, 43-354 del109-125, FLAG-tagged (natural protein)
chain: EPPPGNELPRGPGESRAGPAARPPEPTAERAHSVDPRDAWMLFVRQSDKGVNGKKRSRGKAKKLKFIIPPEALLKEFQLLLKGAVRQRERAEPEPCTCGPAGPVAASLAPVSATAGEDDDDVVGDVLALLAAPLAPGPRAPRVEAAFLCRLRRDALVERRALHELGVYYLPDAEGAFRRGPGLNLTSGQYRAPVAGFYALAATLHVALGEPPRRGPPRPRDHLRLLICIQSRCQRNASLEAIMGLESSSELFTISVNGVLYLQMGQWTSVFLDNASGCSLTVRSGSHFSAVLLGV
IC50 of suppression of hepcidin mRNA (qPCR) in Hep3B cells: 10 nM
